# Measurements as given in the supplement of paper PMC10567573.
# ± gives the standard deviation.
# Assay: protein stability index of a GFP-peptide fusion (GPS, HEK-293T) (PSI 1-6); higher = more stable
# [1] = treatment: DMSO, c terminus: a fixed tail appended
# [2] = treatment: MLN4924 1 uM, 8 h, c terminus: a fixed tail appended
# 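Further: 24-mer peptide tiles fused after GFP, lentivirally expressed, FACS-sorted into six equal bins by GFP/DsRed ratio, decoded by Illumina sequencing, PSI is the read-weighted mean bin number.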
Sequence,protein stability index [1],protein stability index [2],"protein stability index (treatment: DMSO, c terminus: native)","protein stability index (treatment: MLN4924 1 uM, 8 h, c terminus: native)"
LDKLRNEWASHTAALTNKHSQELT [SASS6],3.85 ± 0.33,3.83 ± 0.3,–,–
LDLFGVSMVVPLLSLHVKSLGASP [MFSD9],2.81 ± 0.62,3.02 ± 0.17,–,–
LDQKKQDPRVQDFLQRCLESPFSR [NET1],3.51 ± 0.18,3.55 ± 0.44,–,–
LDRLKVLMQVHASRSNNMGIVGGF [SLC25A25],2.25 ± 0.7,2.1 ± 0.36,–,–
LEPEAAEEALENGPKESLPVIAAP [ACBD3],5.67 ± 0.25,5.64 ± 0.24,–,–
LEPVKKSRLQLLGATCMFVASKMK [CCND1],2.23 ± 0.16,2.12 ± 0.41,–,–
LEQIMESVKSKIGELEDESLNRAC [CEP70],4.47 ± 0.35,4.46 ± 0.36,–,–
LFIQKEEQLQQILKRKNKQAFLDE [MNAT1],2.5 ± 0.47,2.61 ± 0.32,–,–
LFPGRVSVDLMLGLPAQQVGPWLG [RSAD1],2.41 ± 0.86,2.32 ± 0.9,–,–
LFPVFLATDYLRYKPVVLLQGLSL [SLC19A2],2.88 ± 0.41,2.84 ± 0.72,–,–
LGGIGFSSCIVCLFVGLYYNVIIG [SLC6A17],–,3.92 ± 0.088,–,–
LGNLVEGMDFHRFYFENALSKSNK [CAMK2D],2.89 ± 0.2,3.23 ± 0.066,–,–
LGSVQFMEQFCWPHLRSFCETCVG,2.39 ± 0.29,2.21 ± 0.41,–,–
LGYAASLEASVQDDAGTSGGPSSP [C2CD2L],5.45 ± 0.34,5.53 ± 0.22,–,–
LHAPPAFYSTSSGLANGLQLLCPW [VENTX],2.32 ± 0.1,2.27 ± 0.26,–,–
LHCYRDRPHEVLLCSDLVKAYQRC [CHCHD6],2.16 ± 0.36,2.19 ± 0.24,–,–
LHELSSRVEASHLTTSQERELGIR [FBF1],4.46 ± 0.17,4.36 ± 0.25,–,–
LHPPVDDPQSGELPSERWNPTQNV [CDC34],5.02 ± 0.36,5.04 ± 0.32,–,–
LHQETQLIHVYLPLTSHILRAFVN [SNX8],3.06 ± 0.67,2.86 ± 0.48,–,–
LIGDTLLVAPVLEPGKQERDVYLP [MYORG],3.23 ± 0.12,3.03 ± 0.22,–,–
LILSIIFIEGYCTPEEVIWEALNM [MAGEA10],3.32 ± 0.44,3.21 ± 0.79,–,–
LKPHLEGAAFRDHQLLEPIRDFEA [TRIM29],3.88 ± 0.31,4.26 ± 0.25,–,–
LKRSHRESQFLMAKKNFNTNLLE [HESX1],–,–,3.36 ± 0.24,3.62 ± 0.2

Sequence,protein stability index [1],protein stability index [2],"protein stability index (treatment: DMSO, c terminus: native)","protein stability index (treatment: MLN4924 1 uM, 8 h, c terminus: native)"
LKSDLEKASALNTKIRALQGSLEN [CD207],3.91 ± 0.26,3.73 ± 0.66,–,–
LKTKDGKLPFCAMGVSSVIHPKNP [CPOX],3.17 ± 0.34,3.17 ± 0.51,–,–
LLETNPYLLALTIIVSIVHSVFEF [CLPTM1],3.08 ± 0.33,2.69 ± 0.13,–,–
LLFINHRLVESTSLRKAIETVYAA [MLH1],2.2 ± 0.24,–,–,–
LLNSPPSFVCWSRGFMEMNGRGEL [AUP1],2.1 ± 0.52,2.07 ± 0.46,–,–
LLPEDMALRNLPPLRAAHRRFNFD [SMG5],3.06 ± 0.38,3.2 ± 0.33,–,–
LLQDKQFELALQLAEMKDDSDSEK [VPS39],5.19 ± 0.23,5.17 ± 0.26,–,–
LLRAKIEVEKLKAIRLRHDLPEYN [RAD54B],2.69 ± 0.43,2.75 ± 0.49,–,–
LLSDGSNTLSVSYKKGRMMKDISN [SLC6A17],3.03 ± 0.27,3.35 ± 0.31,–,–
LLVYDITNRWSFDGIDRWIKEIDE [RAB40C],2.05 ± 0.22,2.18 ± 0.45,–,–
LMCGGIAFWSLVTLGSSFIPGEHF [SPNS1],3.21 ± 0.64,3.18 ± 0.21,–,–
LMGDESACIAYIRITQYLDAGGIP [CAMK2A],3.21 ± 0.89,2.77 ± 0.68,–,–
LMQLQDIQYLTENIWASQSVLSAC [IQUB],2.67 ± 0.42,2.24 ± 0.37,–,–
LPAEVAGLSQVLLRGGGQVLLGWT [POMT2],2.26 ± 0.54,2.26 ± 0.14,–,–
LPAGPGEEWERRPQEPRPPKRATK [CPXM2],5.04 ± 0.53,5.44 ± 0.28,–,–
LPATLVMTVPATAIYFTAYDQLKA [SLC25A39],3.02 ± 0.33,3 ± 0.51,–,–
LPDNFTLKEDGMETVPWFPKKISD [TPH1],4.4 ± 0.19,4.3 ± 0.12,–,–
LPERRGTCADRDNLTRRFSDLGFE [CASP6],3.16 ± 0.21,3.09 ± 0.086,–,–
LPHDFIDSLEKTDDDKYKITLKYP [NLN],3.7 ± 0.3,3.13 ± 0.089,–,–
LPILGHRDYKIQASRTWCFYNTED [PTGFR],2.41 ± 0.31,2.53 ± 0.33,–,–
LPLPLSLAPPPLPLPAAAVVHVSF [ZBTB22],2.34 ± 0.3,2.15 ± 0.17,–,–
LPSRRDVYLSPRDDGYSTKDSYSS [RBMX],4.11 ± 0.13,3.99 ± 0.42,–,–
